Biological target: F4, TNFα-derived peptide with a myristoylated lysine and fluorescein-labelled cysteine in the +2 position
Test: fluorescence polarisation; SIRT2 in serial dilution from 1.6 µM, F4 10 nM, no NAD+, BSA from zero to 300 µM; 384-well plate, 20 mM Tris-HCl pH 7.8, 150 mM NaCl, 5 mM MgCl2; three independent replicates

Kd: 7 to 18 nM
B1: SIRT2 (enzyme)
chain: MAEPDPSHPLETQAGKVQEAQDSDSDSEGGAAGGEADMDFLRNLFSQTLSLGSQKERLLDELTLEGVARYMQSERCRRVICLVGAGISTSAGIPDFRSPSTGLYDNLEKYHLPYPEAIFEISYFKKHPEPFFALAKELYPGQFKPTICHYFMRLLKDKGLLLRCYTQNIDTLERIAGLEQEDLVEAHGTFYTSHCVSASCRHEYPLSWMKEKIFSEVTPKCEDCQSLVKPDIVFFGESLPARFFSCMQSDFLKVDLLLVMGTSLQVQPFASLISKAPLSTPRLLINKEKAGQSDPFLGMIMGLGGGMDFDSKKAYRDVAWLGECDQGCLALAELLGWKKELEDLVRREHASIDAQSGAGVPNPSTSASPKKSPPPAKDEARTTEREKPQ

From PMC10138348, “Continuous Fluorescent Sirtuin Activity Assay Based on Fatty Acylated Lysines” (International Journal of Molecular Sciences, 2023)
